Measurements as given in article PMC2908525 (Molecular cell, 2010).

Molecular target: the molecule itself
Test: single-molecule TIRF microscopy of DNA looping

B1: enhanced green fluorescent protein-MuB fusion (EGFP-MuB) (natural protein, bacteriophage Mu, UniProt P03763 1-312, looked up)
chain: MNISDIRAGLRTLVENEETTFKQIALESGLSTGTISSFINDKYNGDNERVSQMLQRWLEKYHAVAELPEPPRFVETQTVKQIWTSMRFASLTESIAVVCGNPGVGKTEAAREYRRTNNNVWMITITPSCASVLECLTELAFELGMNDAPRRKGPLSRALRRRLEGTQGLVIIDEADHLGAEVLEELRLLQESTRIGLVLMGNHRVYSNMTGGNRTVEFARLFSRIAKRTAINKTKKADVKAIADAWQINGEKELELLQQIAQKPGALRILNHSLRLAAMTAHGKGERVNEDYLRQAFRELDLDVDISTLLRN
- binding result: binds
